How the values were obtained:
[1] = human predicted dosimetry extrapolated from rat organ distribution (OLINDA/EXM 1.1)
Experimental: The predicted dosimetry in humans was calculated using [^68Ga]Ga-C803-GIP organ distribution data obtained in healthy male Sprague Dawley rats. The rat decay-uncorrected SUVs (SUVA) in various organs were normalized to the whole-body adult reference phantom weights (Equation (2)) in order to assess the residence times (MBq-h/MBq) of the tracer in those organs. The data from the measured time points (5, 10, 20, 40, 60, 90, 120, and 180 min) were used for trapezoidal approximation followed by the extrapolation from the last point to infinity by a single exponential fit. The bone marrow blood volume model was used for the determination of the residence time in bone marrow. The absorbed doses were calculated using OLINDA/EXM version 1.1 with reference to adult male and female phantoms (International Commission on Radiological Protection 60). (2) [%/organ]human=SUVA×(gorgan/kgweight)human

[2] = dynamic PET/CT organ distribution in pig; assay type: in vivo; details: liver, total radioactivity, dynamic PET/CT
Source text: An anesthetized pig (25 kg) was positioned to include the abdomen with pancreas in the center of the 25 cm axial field of view of a Discovery MI PET/CT scanner (GE Healthcare, MI, USA) by assistance of a low-dose CT scout view (140 kV, 10 mAs). The details of the animal handling, preparation, and anesthesia have been previously described.
Attenuation correction was acquired by a 140 kV, 10–80 mA CT examination. The administration of [^68Ga]Ga-C803-GIP (17.3 MBq, corresponding to approximately 2.5 μg peptide or 0.10 μg/kg) was made upon the start of the baseline dynamic scan lasting for 90 min (30 frames; […]). The dynamic scan was followed by a static scan over the brain from 90–120 min post administration. A second PET investigation was performed after an additional 2 h to allow the radioactivity from the first scan to fade from the circulation by decay and excretion.
The GIP(1-42) infusion was continued until the end of the PET scan. Finally, after the last PET scan, a contrast-enhanced CT scan was performed to assist delineation of the tissues, e.g., the pancreas.
Segmentation of the tissues of interest (descending aorta, pancreas, spleen, kidney, liver, and muscle) was performed in PMOD (PMOD Technologies), and time–activity curves were expressed as SUV as detailed above.

[3] = assay type: in vitro ADME; details: 37 °C, polyacrylamide gel electrophoresis with autoradiography
Experimental: Stability of [^68Ga]Ga-GIP-C803 was studied in human plasma, wherein the agent was incubated at 37 °C for under 30 s, 5 min, 45 min, and 90 min. Thereafter, the samples were analyzed by polyacrylamide gel electrophoresis. To enable the interpretation of the results, a number of references were applied along with the molecular weight marker (Figure S2). The gel was imaged by GelDoc Go Imaging System (Biorad, Hercules, CA, USA) for protein/peptide signals and, thereafter, exposed to a phosphor-imager screen overnight and digitalized using the Cyclone Phosphor Imager system (PerkinElmer) for radioactivity signals. The amount of the sample radioactivity loaded on the gel was controlled by a reference drop of the same sample volume on a filter paper exposed to the same screen. The images were analyzed by ImageJ (NIH, Bethesda, MD, USA) and Image Lab (Biorad) software.
Radiolabeling of C803‐GIP
Figure 1S. Typical HPLC-chromatograms with UV absorption profile (lower panel) and radioactivity signal profile (upper panel) of [68Ga]Ga-C803-GIP.
Stability of [68Ga]Ga‐GIP‐C803 in human plasma
Stability of [68Ga]Ga-GIP-C803 was studied in human plasma, wherein the agent was incubated at 37 °C for under 30 seconds, 5 min, 45 min and 90 min. Thereafter, the samples were analyzed by polyacrylamide gel electrophoresis. […] The images were analyzed by ImageJ (NIH, US) and Image Lab (Biorad) software. […]

## CC[C@H](C)[C@H](NC(=O)[C@H](CO)NC(=O)[C@H](Cc1ccc(O)cc1)NC(=O)[C@H](CC(=O)O)NC(=O)[C@H](CO)NC(=O)[C@@H](NC(=O)[C@H](Cc1ccccc1)NC(=O)[C@@H](NC(=O)CNC(=O)[C@H](CCC(=O)O)NC(=O)[C@@H](C)NC(=O)[C@@H](N)Cc1ccc(O)cc1)[C@@H](C)O)[C@@H](C)CC)C(=O)N[C@@H](C)C(=O)N[C@@H](CC(C)C)C(=O)N[C@@H](CC(=O)O)C(=O)N[C@@H](CCCCN)C(=O)N[C@H](C(=O)N[C@@H](Cc1c[nH]cn1)C(=O)N[C@@H](CCC(N)=O)C(=O)N[C@@H](CCC(N)=O)C(=O)N[C@@H](CCC(=O)O)C(=O)N[C@@H](Cc1ccccc1)C(=O)N[C@H](C(=O)N[C@@H](CCC(=O)O)C(=O)N[C@@H](Cc1c[nH]c2ccccc12)C(=O)N[C@@H](CC(C)C)C(=O)N[C@@H](CCCCN)C(=O)N[C@@H](C)C(=O)NCC(=O)NCC(=O)N[C@@H](Cc1c[nH]cn1)C(=O)N1CCC[C@H]1C(=O)N[C@@H](CO)C(=O)NCC(=O)N[C@@H](C)C(=O)N1CCC[C@H]1C(=O)N1CCC[C@H]1C(=O)N1CCC[C@H]1C(=O)N[C@@H](CO)C(=O)N[C@@H](CSCCS(=O)(=O)CCN1CCN(CC(=O)O)CCN(CC(=O)O)CCN(CC(=O)O)CC1)C(N)=O)[C@@H](C)CC)[C@@H](C)CC [[^68Ga]Ga-C803-GIP, metal not drawn]
[1]; human
  predicted absorbed radiation dose, kidneys, females: 0.773 mGy/MBq
  predicted absorbed radiation dose, kidneys, males: 0.713 mGy/MBq
[1]; human female phantom
  Equivalent dose, Adrenals, Female: 0.0124 mSv/MBq
  Equivalent dose, Brain, Female: 0.000658 mSv/MBq
  Equivalent dose, Breasts, Female: 0.00113 mSv/MBq
  Equivalent dose, Gallbladder Wall, Female: 0.00555 mSv/MBq
  Equivalent dose, Heart Wall, Female: 0.0362 mSv/MBq
  Equivalent dose, Kidneys, Female: 0.773 mSv/MBq
  Equivalent dose, LLI Wall, Female: 0.00196 mSv/MBq
  Equivalent dose, Liver, Female: 0.00754 mSv/MBq
  Equivalent dose, Lungs, Female: 0.0073 mSv/MBq
  Equivalent dose, Muscle, Female: 0.00306 mSv/MBq
  Equivalent dose, Osteogenic Cells, Female: 0.0145 mSv/MBq
  Equivalent dose, Pancreas, Female: 0.0089 mSv/MBq
  Equivalent dose, Red Marrow, Female: 0.0135 mSv/MBq
  Equivalent dose, Skin, Female: 0.001 mSv/MBq
  Equivalent dose, Small Intestine, Female: 0.00398 mSv/MBq
  Equivalent dose, Spleen, Female: 0.0124 mSv/MBq
  Equivalent dose, Stomach Wall, Female: 0.00374 mSv/MBq
  Equivalent dose, Testes/Ovaries, Female: 0.00189 mSv/MBq
  Equivalent dose, Thymus, Female: 0.00198 mSv/MBq
  Equivalent dose, Thyroid, Female: 0.000543 mSv/MBq
  Equivalent dose, ULI Wall, Female: 0.00371 mSv/MBq
  Equivalent dose, Urinary Bladder Wall, Female: 0.00202 mSv/MBq
[1]; human male phantom
  Equivalent dose, Adrenals, Male: 0.00936 mSv/MBq
  Equivalent dose, Brain, Male: 0.000541 mSv/MBq
  Equivalent dose, Breasts, Male: 0.000934 mSv/MBq
  Equivalent dose, Gallbladder Wall, Male: 0.00515 mSv/MBq
  Equivalent dose, Heart Wall, Male: 0.0319 mSv/MBq
  Equivalent dose, Kidneys, Male: 0.713 mSv/MBq
  Equivalent dose, LLI Wall, Male: 0.00166 mSv/MBq
  Equivalent dose, Liver, Male: 0.006 mSv/MBq
  Equivalent dose, Lungs, Male: 0.00576 mSv/MBq
  Equivalent dose, Muscle, Male: 0.00227 mSv/MBq
  Equivalent dose, Osteogenic Cells, Male: 0.0109 mSv/MBq
  Equivalent dose, Pancreas, Male: 0.00777 mSv/MBq
  Equivalent dose, Red Marrow, Male: 0.014 mSv/MBq
  Equivalent dose, Skin, Male: 0.000859 mSv/MBq
  Equivalent dose, Small Intestine, Male: 0.0031 mSv/MBq
  Equivalent dose, Spleen, Male: 0.0101 mSv/MBq
  Equivalent dose, Stomach Wall, Male: 0.00335 mSv/MBq
  Equivalent dose, Testes/Ovaries, Male: 0.00137 mSv/MBq
  Equivalent dose, Thymus, Male: 0.00178 mSv/MBq
  Equivalent dose, Thyroid, Male: 0.000487 mSv/MBq
  Equivalent dose, ULI Wall, Male: 0.00309 mSv/MBq
  Equivalent dose, Urinary Bladder Wall, Male: 0.00152 mSv/MBq
[1]; whole-body, human female phantom
  Effective dose, Female: 0.0237 mSv/MBq
[1]; whole-body, human male phantom
  Effective dose, Male: 0.0217 mSv/MBq
[2]; read-out: uptake in the liver after 30 min
  SUV at 0.5 h: < 1 SUV
[2]; read-out: uptake in the liver after 90 min
  SUV at 1.5 h: ~0.5 SUV
[3]; incubated <30 s, 5, 45, 90 min
  time stable in human plasma: at least 90 min
[3]; up to 90 min
  stability in human plasma (in words): stable

Source: publication PMC9864903, “Imaging of the Glucose-Dependent Insulinotropic Polypeptide Receptor Using a Novel Radiolabeled Peptide Rationally Designed Based on Endogenous GIP and Synthetic Exendin-4 Sequences” (Pharmaceuticals, 2022)
